Data: patent US12564623B2, “Methods and compositions for treating cancer” (The University of Chicago, priority 2017, dated 2026)

How the values were obtained:
[1] = test system: CD95; experiment: Recombinant CD95 degradation, SDS-PAGE and coomassie blue; type: biochemical, human; settings: ELANE 0.05 μg, 1 μg recombinant protein, 2 hrs at 37° C.
Description: ELANE lowers CD95 levels in cancer cells and reduced CD95 levels are associated with apoptosis. (FIG. 8A) Recombinant proteins (1 μg) corresponding to full length CD95 (FL-CD95), N-terminal domain of CD95 (amino acids 1-173; N-CD95), or C-terminal domain of CD95 (amino acids 157-320; C-CD95) were inbuated with ELANE (0.05 μg) or vehicle (Veh) for 2 hrs at 37° C. Degradation was assessed by SDS-PAGE followed by coomassie blue staining. […] (FIG. 8C) Cancer cells were treated with ELANE (50 nM) for 1 hr, fixed in 10% formalin, and stained with N- or C-terminal specific anti-CD95 antibodies (green). Hoechst 33342 solution was used for nuclear staining (blue). Images were taken under 40×.
ELANE selectively cleaves the C-terminal domain of CD95. […] Degradation was assessed by SDS-PAGE followed by staining with coomassie blue. […] Mel888 cancer cells were treated with ELANE (50 nM) for various times, and CD95 degradation was assessed by western blot analysis with a C-terminal specific anti-CD95 antibody.
Other serine proteases cleave the C-terminal domain of CD95, and the ability to cleave the C-terminal domain is associated with cancer cell killing. […] Degradation was assessed by SDS-PAGE followed by coomassie blue staining. […] Cell viability was assessed by Calcein AM staining.

[2] = test system: E0771, B16F10, or LLC1 cancer cells; experiment: Tumoral immune cell analysis by flow cytometry; type: in vivo, C57BL/6 mice; settings: 11.6 μg intratumorally once/day for 5 days, day 6
Description: E0771, B16F10, or LLC1 cancer cells were injected into C57BL/6 mice. Once tumors reached ˜100 mm^3, ELANE (11.6 μg) or PMSF-ELANE (11.6 μg) were delivered intratumorally once/day for 5 days. Tumors were isolated on day 6 and digested for immune cell analysis by flow cytometry. CD45+ cells are the total immune cells; macrophages (Mac) are defined as CD45+CD11b+CD11c^lowMHCII^low, neutrophils (Neu) are defined as CD45+CD11b+Ly6G+, dendritic cells (DC) are defined as CD45+CD11b+CD11c^highMHCII^high, B cells (b) are defined as CD45+B220+, NK cells (NK) are defined as CD45+NK1.1+CD16+, CD4+ T cells (CD4T) are defined as CD3+CD4+CD8−, CD8+ T cells (CD8T) are defined as CD3+CD8+CD4−, CD8 effector T cells (CD8Teff) are defined as CD3+CD8+CD4−CD62L−CD44+. *, p<0.05, Student's t-test. (FIG. 17)

[3] = test system: E0771 cancer cells; experiment: Abscopal effect, bilateral E0771 tumors; type: in vivo, C57BL/6 mice
Description: (FIG. 19A) E0771 cancer cells were injected into left (0.5 million cells) and right (0.4 million cells) mammary fat pad of C57BL/6 mice. Once tumors on the left side reached ˜100 mm^3, ELANE (11.6 μg) or PMSF-inactivated ELANE (PMSF-ELANE) were injected intra-tumorally into the left tumor once/day for 5 days. n=10 mice/group. No action was performed on the right side of the tumor (abscopal side). Tumor volume on both sides were measured by calipers. (FIG. 19B) To eliminate the possibility that the abscopal effect was due to spillover of ELANE from the left to the right tumor, E0771 cancer cells were injected only into the left mammary fat pad of C57BL/6 mice, and mice were treated daily with ELANE (11.6 μg) or PMSF-ELANE into the right mammary fat pad. Tumor volume was measured by calipers.

[4] = test system: E0771 cancer cells; experiment: ELANE with anti-PD-L1 in a mouse model of TNBC; type: in vivo, C57BL/6 mice; settings: ELANE 11.6 μg + anti-PD-L1 100 μg
Description: E0771 cancer cells were injected into C57BL/6 mice. Once tumors reached ˜100 mm^3, mice were randomly separated into four groups: ELANE (11.6 μg), PMSF-inactivated ELANE (PMSF-ELANE), anti-PD-L1 (BioXCell, 10F.9G2, 100 μg), and ELANE (11.6 μg)+anti-PD-L1 (100 μg). n=8-9 mice/group. Anti-PD-L1 monoclonal antibody was injected intaperitoneally on days 10, 14, 18, and 22 after tumor inoculation. ELANE or PMSF-ELANE were delivered intra-tumorally when tumors reached ˜[…] (˜ 14 days post cancer cell injection). (FIG. 20A) Tumor volume was measured by calipers. (FIG. 20B) Kaplan-Meier curve was plotted and the logrank test (Mentel-Cox method) was used for mouse survival analysis. End point of survival is defined as tumor volume >1000 mm^3. *, p<0.05, Student's t-test.

[5] = test system: human blood Tcells; experiment: Apoptosis of human blood T cells in vitro; type: cell-based
Description: The efficiency by which these proteases cleaved CD95 was well correlated with their ability to kill cancer cells. Thus, targeting CD95 for degradation offers three important advantages over the FASL and siRNA/shRNA approaches described above. First, unlike the resistance reported with FASL, the inventors have shown that cancer cells are incapable of becoming resistant to this degradative pathway in vitro and in vivo. […] In fact, when tumor bearing mice were treated with ELANE, tumor and splenic T-cells numbers were elevated.

B1: neutrophil elastase (protein, listed as Homo sapiens)
chain: MTLGRRLACLFLACVLPALLLGGTALASEIVGGRRARPHAWPFMVSLQLRGGHFCGATLIAPNFVMSAAHCVANVNVRAVRVVLGAHNLSRREPTRQVFAVQRIFENGYDPVNLLNDIVILQLNGSATINANVQVAQLPAQGRRLGNGVQCLAMGWGLLGRNRGIASVLQELNVTVVTSLCRRSNVCTLVRGRQAGVCFGDSGSPLVCNGLIHGIASFVRGGCASGLYPDAFAPVAQFVNWIDSIIQRSEDNPCPHPRDPDPASRTH
notes: purified native ELANE
With B1 the “cleavage of CD95 domains” value [1] was “preferentially cleaves the C-terminal domain of CD95”, the tumoral immune cells [2] was “increases tumoral immune cells” and the “tumor growth after injection into contralateral non-tumor bearing mammary fat pad” value ([3]; 11.6 μg daily) was “does not lower tumor growth”. For the same molecule, the abscopal effect ([3]; 11.6 μg into left tumor once/day for 5 days) was “induces an abscopal effect”, the “efficacy with anti-PD-L1” value [4] was “enables anti-PDL1 efficacy” and the “apoptosis of human blood T cells” value [5] was “did not induce apoptosis in vitro”.
